Measured values reported in PMC6150197, “NeoBOMB1, a GRPR-Antagonist for Breast Cancer Theragnostics: First Results of a Preclinical Study with [^67Ga]NeoBOMB1 in T-47D Cells and Tumor-Bearing Mice” (Molecules : A Journal of Synthetic Chemistry and Natural …, 2017).
Read-outs that look alike come from different tables or passages of the source.

Key:
in vivo = conditions: female, SCID, mouse, iv, total radioactivity, Biodistribution, mean ± sd, n = 4; for tissue uptake at 4 h: 4 h pi; for tissue uptake at 1 h: 1 h pi; for tissue uptake at 24 h: 24 h pi
Protocol: (§1) Female SCID mice (15 ± 3 g, six weeks of age animals at the day of arrival, NCSR “Demokritos” Animal House Facility) were acclimatized under aseptic conditions and treated with estrogens (receiving 4 mg/L β-estradiol, Sigma-Aldrich, St. Louis, MO, USA, in their drinking water,) for a week prior to inoculation. A ≈ 150 μL bolus containing a suspension of ≈1.2 × 10^7 freshly harvested human T-47D cells suspended in Matrigel (Corning Life Sciences, Inc., Bedford, MA, USA) was subcutaneously injected in their flanks. The animals were kept under estrogen treatment for additional 8 weeks till they developed well-palpable tumors (100–200 mg) at the inoculation sites.
(§2) On the day of the experiment animals were allowed access to water, but not to food. Animals in 3 groups of 4 received a 100 μL bolus of [^67Ga]NeoBOMB1 (37 kBq, corresponding to 10 pmol, or 200 pmol total peptide or 40 nmol for in vivo GRPR-blockade for each of the 3 groups) was injected in the tail vein; animals were euthanized at 4 h pi and dissected. Samples of blood, tumors and organs of interest were collected, weighed and measured for radioactivity in the gamma counter. Intestines and stomach were not emptied of their contents. In another experimental setting, mice in 3 groups of 4 received a 100 μL bolus of [^67Ga]NeoBOMB1 (37 kBq, 200 pmol); they were euthanized at 1 h, 4 h and 24 h pi and biodistribution was conducted as described above. Statistical analysis was conducted using the unpaired two-tailed Student’s t-test; values p < 0.05 were considered statistically significant.

[1] = tested on: T-47D Xenograft-Bearing SCID Mice; assay: in vivo; conditions: T-47D tumor, 4 h pi, mean ± sd, n = 4
Protocol: as §1, §2

[2] = male Swiss albino mice, iv 3 nmol total peptide, radio-HPLC
Protocol: [^67Ga]NeoBOMB1 was injected as a 100 μL bolus (11–22 MBq, 3 nmol total peptide) in the tail vein of male Swiss albino mice (30 ± 5 g, NCSR “Demokritos” Animal House Facility). Mice were anesthetized, and blood (0.5–1 mL) was collected from the heart at 5 and 30 min post injection (pi). Animals were euthanized and blood directly drawn from the heart was transferred in a pre-chilled EDTA-containing Eppendorf tube on ice. Blood samples were centrifuged for 10 min at 2000× g at 4 °C and plasma was collected. After addition of an equal volume of ice-cold MeCN the mixture was centrifuged for 10 min at 15,000× g at 4 °C. The supernatant was concentrated under a N2-flux at 40 °C to 0.05–0.1 mL, diluted with saline (0.4 mL), filtered through a 0.22 μm Millex GV filter (Millipore, Milford, MA, USA) and analyzed by RP-HPLC. The Symmetry Shield RP18 (5 μm, 3.9 mm × 20 mm) column was eluted at a flow rate of 1.0 mL/min with the following linear gradient: 100% A and 0% B to 50% A and 50% B in 50 min; (A = 0.1% aqueous TFA (v/v) and B = MeCN). The tR of the intact radiopeptide was determined by coinjection with the [^67Ga]NeoBOMB1 reference in the HPLC.

[3] = T-47D tumor, 200 pmol, Tumor, 200 pmol peptide (0.185 MBq/nmol) iv, Table 2 time study
[4] = blood, 200 pmol, 200 pmol peptide (0.185 MBq/nmol) iv, Table 2 time study
[5] = femur, 200 pmol, 200 pmol peptide (0.185 MBq/nmol) iv, Table 2 time study
[6] = heart, 200 pmol, 200 pmol peptide (0.185 MBq/nmol) iv, Table 2 time study
[7] = intestines (not emptied), 200 pmol, Intestines, 200 pmol peptide (0.185 MBq/nmol) iv, Table 2 time study
[8] = kidneys, 200 pmol, 200 pmol peptide (0.185 MBq/nmol) iv, Table 2 time study
[9] = liver, 200 pmol, 200 pmol peptide (0.185 MBq/nmol) iv, Table 2 time study
[10] = lungs, 200 pmol, 200 pmol peptide (0.185 MBq/nmol) iv, Table 2 time study
[11] = muscle, 200 pmol, 200 pmol peptide (0.185 MBq/nmol) iv, Table 2 time study
[12] = pancreas, 200 pmol, 200 pmol peptide (0.185 MBq/nmol) iv, Table 2 time study
[13] = spleen, 200 pmol, 200 pmol peptide (0.185 MBq/nmol) iv, Table 2 time study
[14] = stomach (not emptied), 200 pmol, Stomach, 200 pmol peptide (0.185 MBq/nmol) iv, Table 2 time study

CC(C)CC(CC(C)C)NC(=O)[C@H](Cc1cnc[nH]1)NC(=O)CNC(=O)[C@@H](NC(=O)[C@H](C)NC(=O)[C@H](Cc1c[nH]c2ccccc12)NC(=O)[C@H](CCC(N)=O)NC(=O)[C@@H](Cc1ccccc1)NC(=O)COCC(=O)Nc1ccc(CNC(=O)CN2CCN(CC(=O)O)CCN(CC(=O)O)CCN(CC(=O)O)CC2)cc1)C(C)C [[^67Ga]NeoBOMB1, metal not drawn]
tissue uptake at 4 h (in vivo; T-47D tumor, 10 pmol, Tumor, 10 pmol peptide (3.7 MBq/nmol) iv): 9.52 ± 2.15 %ID/g | tissue uptake at 1 h (in vivo; [3]): 7.4 ± 0.68 %ID/g | tissue uptake at 4 h (in vivo; T-47D tumor, 200 pmol, Tumor, 200 pmol peptide (0.185 MBq/nmol) iv, Table 1 dose study): 7.79 ± 1.54 %ID/g | tissue uptake at 4 h (in vivo; [3]): 8.67 ± 2.88 %ID/g | tissue uptake at 24 h (in vivo; [3]): 7.89 ± 1.13 %ID/g | tissue uptake at 4 h (in vivo; T-47D tumor, 40 nmol, Tumor, 40 nmol NeoBOMB1, in vivo GRPR-blockade): 0.6 ± 0.1 %ID/g | tissue uptake at 1 h (in vivo; [4]): 5.78 ± 0.29 %ID/g | tissue uptake at 4 h (in vivo; [4]): 0.52 ± 0.03 %ID/g | tissue uptake at 24 h (in vivo; [4]): 0.15 ± 0.01 %ID/g | tissue uptake at 4 h (in vivo; femur, 10 pmol, 10 pmol peptide (3.7 MBq/nmol) iv): 0.58 ± 0.06 %ID/g | tissue uptake at 1 h (in vivo; [5]): 0.73 ± 0.11 %ID/g | tissue uptake at 4 h (in vivo; femur, 200 pmol, 200 pmol peptide (0.185 MBq/nmol) iv, Table 1 dose study): 0.28 ± 0.01 %ID/g | tissue uptake at 4 h (in vivo; [5]): 0.37 ± 0.02 %ID/g | tissue uptake at 24 h (in vivo; [5]): 0.24 ± 0.08 %ID/g | tissue uptake at 4 h (in vivo; femur, 40 nmol, 40 nmol NeoBOMB1, in vivo GRPR-blockade): 0.31 ± 0.02 %ID/g | tissue uptake at 4 h (in vivo; heart, 10 pmol, 10 pmol peptide (3.7 MBq/nmol) iv): 0.26 ± 0.01 %ID/g | tissue uptake at 1 h (in vivo; [6]): 1.94 ± 0.09 %ID/g | tissue uptake at 4 h (in vivo; heart, 200 pmol, 200 pmol peptide (0.185 MBq/nmol) iv, Table 1 dose study): 0.34 ± 0.04 %ID/g | tissue uptake at 4 h (in vivo; [6]): 0.52 ± 0.04 %ID/g | tissue uptake at 24 h (in vivo; [6]): 0.22 ± 0.04 %ID/g | tissue uptake at 4 h (in vivo; heart, 40 nmol, 40 nmol NeoBOMB1, in vivo GRPR-blockade): 0.38 ± 0.02 %ID/g | tissue uptake at 1 h (in vivo; [7]): 10.6 ± 0.87 %ID/g | tissue uptake at 4 h (in vivo; [7]): 18.5 ± 2.12 %ID/g | tissue uptake at 24 h (in vivo; [7]): 2.31 ± 0.34 %ID/g | tissue uptake at 4 h (in vivo; intestines, 10 pmol, Intestines (not emptied), 10 pmol peptide (3.7 MBq/nmol) iv): 16.7 ± 2.18 %ID/g | tissue uptake at 4 h (in vivo; intestines, 200 pmol, Intestines (not emptied), 200 pmol peptide (0.185 MBq/nmol) iv, Table 1 dose study): 15.1 ± 1.52 %ID/g | tissue uptake at 4 h (in vivo; intestines, 40 nmol, Intestines (not emptied), 40 nmol NeoBOMB1, in vivo GRPR-blockade): 11.1 ± 2.71 %ID/g | tissue uptake at 4 h (in vivo; kidneys, 10 pmol, 10 pmol peptide (3.7 MBq/nmol) iv): 3.4 ± 0.45 %ID/g | tissue uptake at 1 h (in vivo; [8]): 7.33 ± 0.47 %ID/g | tissue uptake at 4 h (in vivo; kidneys, 200 pmol, 200 pmol peptide (0.185 MBq/nmol) iv, Table 1 dose study): 2.76 ± 0.26 %ID/g | tissue uptake at 4 h (in vivo; [8]): 3.1 ± 0.75 %ID/g | tissue uptake at 24 h (in vivo; [8]): 2.15 ± 0.42 %ID/g | tissue uptake at 4 h (in vivo; kidneys, 40 nmol, 40 nmol NeoBOMB1, in vivo GRPR-blockade): 3.95 ± 0.94 %ID/g | tissue uptake at 4 h (in vivo; liver, 10 pmol, 10 pmol peptide (3.7 MBq/nmol) iv): 3.37 ± 0.19 %ID/g | tissue uptake at 1 h (in vivo; [9]): 25.7 ± 1.97 %ID/g | tissue uptake at 4 h (in vivo; liver, 200 pmol, 200 pmol peptide (0.185 MBq/nmol) iv, Table 1 dose study): 6.5 ± 0.34 %ID/g | tissue uptake at 4 h (in vivo; [9]): 7.05 ± 0.31 %ID/g | tissue uptake at 24 h (in vivo; [9]): 2.26 ± 0.18 %ID/g | tissue uptake at 4 h (in vivo; liver, 40 nmol, 40 nmol NeoBOMB1, in vivo GRPR-blockade): 9.67 ± 0.75 %ID/g | tissue uptake at 4 h (in vivo; lungs, 10 pmol, 10 pmol peptide (3.7 MBq/nmol) iv): 0.5 ± 0.06 %ID/g | tissue uptake at 1 h (in vivo; [10]): 2.88 ± 0.2 %ID/g | tissue uptake at 4 h (in vivo; lungs, 200 pmol, 200 pmol peptide (0.185 MBq/nmol) iv, Table 1 dose study): 0.43 ± 0.06 %ID/g | tissue uptake at 4 h (in vivo; [10]): 0.47 ± 0.04 %ID/g | tissue uptake at 24 h (in vivo; [10]): 0.15 ± 0.02 %ID/g | tissue uptake at 4 h (in vivo; lungs, 40 nmol, 40 nmol NeoBOMB1, in vivo GRPR-blockade): 0.42 ± 0.02 %ID/g | tissue uptake at 4 h (in vivo; muscle, 10 pmol, 10 pmol peptide (3.7 MBq/nmol) iv): 0.1 ± 0.03 %ID/g | tissue uptake at 1 h (in vivo; [11]): 0.58 ± 0.11 %ID/g | tissue uptake at 4 h (in vivo; muscle, 200 pmol, 200 pmol peptide (0.185 MBq/nmol) iv, Table 1 dose study): 0.12 ± 0.01 %ID/g | tissue uptake at 4 h (in vivo; [11]): 0.17 %ID/g | tissue uptake at 24 h (in vivo; [11]): 0.13 ± 0.01 %ID/g | tissue uptake at 4 h (in vivo; muscle, 40 nmol, 40 nmol NeoBOMB1, in vivo GRPR-blockade): 0.16 ± 0.06 %ID/g | tissue uptake at 4 h (in vivo; pancreas, 10 pmol, 10 pmol peptide (3.7 MBq/nmol) iv): 206 ± 17.4 %ID/g | tissue uptake at 1 h (in vivo; [12]): 32.5 ± 0.78 %ID/g | tissue uptake at 4 h (in vivo; pancreas, 200 pmol, 200 pmol peptide (0.185 MBq/nmol) iv, Table 1 dose study): 42.5 ± 1.31 %ID/g | tissue uptake at 4 h (in vivo; [12]): 36.9 ± 3.58 %ID/g | tissue uptake at 24 h (in vivo; [12]): 21.3 ± 2.77 %ID/g | tissue uptake at 4 h (in vivo; pancreas, 40 nmol, 40 nmol NeoBOMB1, in vivo GRPR-blockade): 1.17 ± 0.11 %ID/g | tissue uptake at 4 h (in vivo; spleen, 10 pmol, 10 pmol peptide (3.7 MBq/nmol) iv): 1.02 ± 0.09 %ID/g | tissue uptake at 1 h (in vivo; [13]): 1.71 ± 0.5 %ID/g | tissue uptake at 4 h (in vivo; spleen, 200 pmol, 200 pmol peptide (0.185 MBq/nmol) iv, Table 1 dose study): 0.7 ± 0.09 %ID/g | tissue uptake at 4 h (in vivo; [13]): 0.89 ± 0.12 %ID/g | tissue uptake at 24 h (in vivo; [13]): 0.46 ± 0.08 %ID/g | tissue uptake at 4 h (in vivo; spleen, 40 nmol, 40 nmol NeoBOMB1, in vivo GRPR-blockade): 0.79 ± 0.11 %ID/g | tissue uptake at 1 h (in vivo; [14]): 5.89 ± 1.02 %ID/g | tissue uptake at 4 h (in vivo; [14]): 2.66 ± 0.16 %ID/g | tissue uptake at 24 h (in vivo; [14]): 2.07 ± 0.43 %ID/g | tissue uptake at 4 h (in vivo; stomach, 10 pmol, Stomach (not emptied), 10 pmol peptide (3.7 MBq/nmol) iv): 4.36 ± 0.56 %ID/g | tissue uptake at 4 h (in vivo; stomach, 200 pmol, Stomach (not emptied), 200 pmol peptide (0.185 MBq/nmol) iv, Table 1 dose study): 2.38 ± 0.13 %ID/g | tissue uptake at 4 h (in vivo; stomach, 40 nmol, Stomach (not emptied), 40 nmol NeoBOMB1, in vivo GRPR-blockade): 0.42 ± 0.1 %ID/g | tissue uptake at 4 h (in vivo; whole blood, 10 pmol, Blood, 10 pmol peptide (3.7 MBq/nmol) iv): 0.53 ± 0.04 %ID/g | tissue uptake at 4 h (in vivo; whole blood, 200 pmol, Blood, 200 pmol peptide (0.185 MBq/nmol) iv, Table 1 dose study): 0.42 ± 0.06 %ID/g | tissue uptake at 4 h (in vivo; whole blood, 40 nmol, Blood, 40 nmol NeoBOMB1, in vivo GRPR-blockade): 0.46 ± 0.03 %ID/g | Biodistribution, Tumor ([1]; 200 pmol peptide (0.185 MBq/nmol) iv, Table 2 time study): 8.68 ± 2.9 % ID/g | Biodistribution, Tumor ([1]; 40 nmol NeoBOMB1, in vivo GRPR-blockade, iv): 0.64 ± 0.10 % ID/g | Intact radioligand in mouse circulation ([2]; blood collected 5 min pi): 98% | Intact radioligand in mouse circulation ([2]; blood collected 30 min pi): 90%
